Data on three molecules can be found in patent US20240166753A1 (DRAGONFLY THERAPEUTICS, published 2024).

Assay [1] concerns the target T1, CD33 expressed on MV4-11 human AML cells (human, UniProt P20138 18-364).
T1 construct: whole, on cells; also called cell-expressed CD33
The experiment in a line: flow cytometry on MV4-11 cells. Background: Flow cytometry measures light scatter and fluorescence of single cells or particles in a stream.

The target in assay [2] is T1, CD33 expressed on MV4-11 human AML cells. The experiment in a line: flow cytometry on MV4-11 cells, MFI fold over background.
Assay [3] addresses T2, murine NKG2D overexpressed on EL4 cells (EL4-mNKG2D) (mouse, UniProt O54709 1-232).
T2 construct: whole, on cells; also called EL4-mNKG2D cells
T2 sequence (looked up): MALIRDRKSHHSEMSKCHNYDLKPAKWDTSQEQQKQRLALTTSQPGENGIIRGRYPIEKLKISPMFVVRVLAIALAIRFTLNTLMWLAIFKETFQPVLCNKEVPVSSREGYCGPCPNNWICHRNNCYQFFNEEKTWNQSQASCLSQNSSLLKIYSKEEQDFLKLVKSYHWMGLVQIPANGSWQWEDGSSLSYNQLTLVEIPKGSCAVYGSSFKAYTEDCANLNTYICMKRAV
The experiment in a line: flow cytometry, 60 ug/mL with four-fold dilutions, EL4-mNKG2D cells, goat anti-mouse PE.

The target in assay [4] is T3, Tyrp-1 on B16F10 melanoma cells (UniProt P07147 25-537, limits assumed).
T3 construct: whole, on cells; B16F10 is a mouse melanoma line; also called Tyrp-1-positive B16F10 melanoma cells
The experiment in a line: flow cytometry, 60 ug/mL with four-fold dilutions, B16F10 tumor cells, goat anti-mouse PE.

T1 sequence (P20138 18-364): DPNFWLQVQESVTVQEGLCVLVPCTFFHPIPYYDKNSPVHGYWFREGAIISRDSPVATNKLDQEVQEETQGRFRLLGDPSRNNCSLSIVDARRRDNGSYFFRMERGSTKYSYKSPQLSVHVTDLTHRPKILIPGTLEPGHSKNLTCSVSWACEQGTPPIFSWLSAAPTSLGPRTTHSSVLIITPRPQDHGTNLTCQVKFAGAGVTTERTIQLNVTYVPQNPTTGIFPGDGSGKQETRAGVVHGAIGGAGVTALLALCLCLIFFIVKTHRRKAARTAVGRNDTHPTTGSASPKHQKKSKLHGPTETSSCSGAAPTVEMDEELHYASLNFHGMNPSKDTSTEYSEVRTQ

B1: CD33-TriNKET-C26 (ADI-28226 and a CD33-binding domain) (bispecific antibody, V domains shown)
VH 1: QVQLQQWGAGLLKPSETLSLTCAVYGGSFSGYYWSWIRQPPGKGLEWIGEIDHSGSTNYNPSLKSRVTISVDTSKNQFSLKLSSVTAADTAVYYCARARGPWSFDPWGQGTLVTVSS
VL 1: DIQMTQSPSTLSASVGDRVTITCRASQSISSWLAWYQQKPGKAPKLLIYKASSLESGVPSRFSGSGSGTEFTLTISSLQPDDFATYYCQQYGSFPITFGGGTKVEIK
VH 2: QVQLVQSGAEVKKPGASVKVSCKASGYTFTDYVVHWVRQAPGQGLEWMGYINPYNDGTKYNEKFKGRVTMTRDTSISTAYMELSRLRSDDTAVYYCARDYRYEVYGMDYWGQGTLVTVSS
VL 2: DIVLTQSPASLAVSPGQRATITCTASSSVNYIHWYQQKPGQPPKLLIYDTSKVASGVPARFSGSGSGTDFTLTINPVEANDTANYYCQQWRSYPLTFGQGTKLEIK
notes: also called C26-TriNKET-CD33
Turning to B1, the binding result in assay [1] is recorded as “binds”.

B2: parental anti-CD33 monoclonal antibody (antibody, V domains shown)
VH: QVQLVQSGAEVKKPGASVKVSCKASGYTFTDYVVHWVRQAPGQGLEWMGYINPYNDGTKYNEKFKGRVTMTRDTSISTAYMELSRLRSDDTAVYYCARDYRYEVYGMDYWGQGTLVTVSS
VL: DIVLTQSPASLAVSPGQRATITCTASSSVNYIHWYQQKPGQPPKLLIYDTSKVASGVPARFSGSGSGTDFTLTINPVEANDTANYYCQQWRSYPLTFGQGTKLEIK
notes: also called parental monoclonal anti-CD33 antibody; parental anti-CD33 antibody
As for B2, the binding result in assay [2] is given as “binds”.

B3: mcFAE-C26.99 TriNKET (bispecific antibody, mouse IgG2c)
heavy 1: QVQLQQWGAGLLKPSETLSLTCAVYGGSFSGYYWSWIRQPPGKGLEWIGEIDHSGSTNYNPSLKSRVTISVDTSKNQFSLKLSSVTAADTAVYYCARARGPWSFDPWGQGTLVTVSSAKTTAPSVYPLAPVCGGTTGSSVTLGCLVKGYFPEPVTLTWNSGSLSSGVHTFPALLQSGLYTLSSSVTVTSNTWPSQTITCNVAHPASSTKVDKKIEPRVPITQNPCPPLKECPPCAAPDLLGGPSVFIFPPKIKDVLMISLSPMVTCVVVDVSEDDPDVQISWFVNNVEVHTAQTQTHREDYNSTLRVVSALPIQHQDWMSGKEFKCKVNNRALPSPIEKTISKPRGPVRAPQVYVLPPPAEEMTKKEFSLTCMIKGFLPAEIAVDWTSNGRTEQNYKNTATVLDSDGSYFMYSRLRVQKSTWERGSLFACSVVHEGLHNHLTTKTISRSLGK
light 1: DIQMTQSPSTLSASVGDRVTITCRASQSISSWLAWYQQKPGKAPKLLIYKASSLESGVPSRFSGSGSGTEFTLTISSLQPDDFATYYCQQYGSFPITFGGGTKVEIKRADAAPTVSIFPPSSEQLTSGGASVVCFLNNFYPKDINVKWKIDGSERQNGVLNSWTDQDSKDSTYSMSSTLTLTKDEYERHNSYTCEATHKTSTSPIVKSFNRNEC
heavy 2: EVQLQQSGAELVRPGALVKLSCKTSGFNIKDYFLHWVRQRPDQGLEWIGWINPDNGNTVYDPKFQGTASLTADTSSNTVYLQLSGLTSEDTAVYFCTRRDYTYEKAALDYWGQGASVIVSSAKTTAPSVYPLAPVCGGTTGSSVTLGCLVKGYFPEPVTLTWNSGSLSSGVHTFPALLQSGLYTLSSSVTVTSNTWPSQTITCNVAHPASSTKVDKKIEPRVPITQNPCPPLKECPPCAAPDLLGGPSVFIFPPKIKDVLMISLSPMVTCVVVDVSEDDPDVQISWFVNNVEVHTAQTQTHREDYNSTLRVVSALPIQHQDWMSGKEFKCKVNNRALPSPIEKTISKPRGPVRAPQVYVLPPPAEEMTKKEFSLTCMITGFLPAEIAVDWTSNGRTEQNYKNTATVLDSDGSYLMYSKLTVQKSTWERGSLFACSVVHEGLHNHLTTKTISRSLGK
light 2: DIQMSQSPASLSASVGETVTITCRASGNIYNYLAWYQQKQGKSPHLLVYDAKTLADGVPSRFSGSGSGTQYSLKISSLQTEDSGNYYCQHFWSLPFTFGSGTKLEIKRADAAPTVSIFPPSSEQLTSGGASVVCFLNNFYPKDINVKWKIDGSERQNGVLNSWTDQDSKDSTYSMSSTLTLTKDEYERHNSYTCEATHKTSTSPIVKSFNRNEC
notes: Heterodimer of mC26 and TA99 with mouse IgG2c as the Fc; also called murine cFAE-C26.99 TriNKET; TA99 TriNKET
Consider B3, for which the binding result in assay [3] and in assay [4] was “binds” each time.
